The target in one assay is T1, TAPBPR/HLA-A02 complexes (Homo sapiens, UniProt P04439).
T1 construct: Plasmid DNA encoding the luminal domain of class I MHC (MHC-I) heavy chains H2-D^d, HLA-A*02:01; made in house
In words: native gel electrophoresis: release of HLA-A02 from tetramerized TAPBPR/HLA-A02 complexes by peptide. It is filed as binding. The following applies: biotinylated TAPBPR/HLA-A02 tetramerized with Streptavidin-PE; TAX 25, 125 or 2500 pmol; P18-I10 2500 pmol; 12% acrylamide gel.

The target in a further assay is goldilocks/HLA-A*02:01 (Homo sapiens, UniProt P04439). In words: native gel electrophoresis assay of TAPBPR-mediated peptide exchange on p*MHC-I. The following applies: overnight incubation, excess peptide of interest, TAPBPR:MHC molar ratio 1:1 down to 1:1000.
The test system of assay [1] is murine cells expressing the B4.3.2 TCR, DMF5 human T cells expressing the MART-1 TCR, NY-ESO-1 human T cells expressing the NY-ESO-1 TCR. In words: flow cytometry staining of TCR-expressing cells with pMHC-I tetramers. It is filed as cell-based. The following applies: TAPBPR at up to 1:100 molar ratio with MHC-I. The method, then:
Flow cytometry was performed using commercially available tetramers prepared by currently available methods (“conventional”), as well as by the disclosed methods involving TAPBPR peptide exchange using a stoichiometric amount of TAPBPR (“exchanged stoichiometric”), a catalytic amount of TAPBPR (1:100 TAPBPR: MHC-I) (“exchanged catalytic”) or a mismatched peptide. […]. Tetramers prepared by the disclosed methods performed similarly to tetramers commercially produced using conventional methods.
FIG. 7C illustrates a titration of P18410/H-2D^d binding to B.4.2.3 cells (top), HLA-A*2:01/MART-1 binding to DMF5 cells (middle) and HLA-A*2:01/NY-ESO-1 peptide binding to NY-ESO-1 cells (bottom). The binding compares commercially available pMHC-I tetramers prepared using conventional methods (refolded) with pMHC-I tetramers prepared using the disclosed methods. […]. Data shown is representative of triplicate assays and error-bars are standard deviation from the mean.
Tetramer formation The procedure for production of peptide loaded tetramers using TAPBPR mediated exchange is described in See, e.g., Overall et al., “High Throughput pMHC-I Tetramer Library Production Using Chaperone Mediated Peptide Exchange,” bioRxiv, doi:10.1101/653477 (2019), which is hereby incorporated by reference in its entirety herein. […]
A general note: Flow cytometry measures light scatter and fluorescence of single cells or particles in a stream.

“Also recorded” adds a separate entry of the source.

Description for TAPBPR/HLA-A02 complexes: The peptide receptive MHC-I complexes were isolated by gel filtration and tetramerized with Streptavidin-PE.

Turning to RGPGRAFVTI [P18-I10], the “release of HLA-A02 proteins from the TAPBPR/HLA-A02 complexes (native gel)” value with TAPBPR/HLA-A02 complexes is “showed no HLA-A02 proteins”.

For “TAPBPR: molecular chaperone; recombinant luminal domain expressed in Drosophila S2 cells”, the “peptide exchange on goldilocks/HLA-A*02:01 (formation of pMHC species)” value with goldilocks/HLA-A*02:01 is reported as “complete peptide exchange; also recorded: catalyzes efficient peptide exchange when present at up to 1:1000 molar ratio with MHC-I”. The “peptide exchange catalysed by TAPBPR (FIGS. 7A-7C)” value in assay [1] was “catalyzes efficient peptide exchange when present at up to 1:100 molar ratio with MHC-I”.

(Values after US12703930B2, “Systems and methods for identification of MHC-I peptide epitopes” (THE REGENTS OF THE UNIVERSITY OF CALIFORNIA, priority 2020, dated 2026).)
